Results: patent US20070066802A1

Legend:
Assay in all cases: cell-based or functional assay
[1] = biological target: K^b-CD28-ζ receptor pulsed with ovalbumin 257-264 peptide (SIINFEKL) (mouse) (UniProt P31041)
[2] = biological target: K^b-CD28[L→G]-ζ receptor pulsed with ovalbumin 257-264 peptide (SIINFEKL) (mouse) (UniProt P31041)
[3] = biological target: K^b-CD28[L→G]-ζ receptor (mouse) (UniProt P31041)

in vivo depletion of Vα2+ OT-1 cells from the LN, peptide-pulsed against unpulsed RMTC [1]	in vivo depletion of Vα2+ OT-1 cells from the spleen, peptide-pulsed against unpulsed RMTC [1]	in vivo depletion of Vα2+ OT-1 cells from the LN, peptide-pulsed against unpulsed RMTC [2]	in vivo depletion of Vα2+ OT-1 cells from the spleen, peptide-pulsed against unpulsed RMTC [2]	lysis of OT-1 target cells, peptide concentration for equivalent lysis against K^b-CD28-ζ RMTC (fold lower peptide concentration) [2]	specific lysis of OT-1 T cells, RMTC dose for equivalent lysis against K^b-CD28-ζ RMTC (fold fewer RMTC) [2]	IFN-γ release by RMTC [3]	Substance
93%	96%	98%	99%	5 to 20	3 to 9	–	OT-1 TCR (rearranged ovalbumin 257-264/H-2K^b restricted TCR)
–	–	–	–	–	–	> 3.5 fold	clone AF6-88.5 anti-mouse H-2K^b (antibody)
